Experimental data from patent US6521594 (dated 2003).
Like-named read-outs stand apart in the source and are kept apart here. Starred links: 1 amine or outer side, 2 acyl side, 3 side chain; linkers in the order of their positions; H or OH if unused. Positions of bridges follow the written chain, without caps; N, C: chain ends. Non-standard residues stand in square brackets, D forms with d. Primed or numbered codes have the meaning given here. No end group written: not given here. *: point of attachment. Tyr(OMe)″ = O-methyl-tyrosine (Y-OMe, TyrOMe, O-Me-Tyr), COc1ccc(C[C@H](N[*:1])C(=O)[*:2])cc1; Tyr(Me) = O-methyl-tyrosine (Y-OMe, O-Me-Tyr), COc1ccc(C[C@H](N[*:1])C(=O)[*:2])cc1; Tyr(nBu) = O-n-butyl-tyrosine, CCCCOc1ccc(C[C@H](N[*:1])C(=O)[*:2])cc1; Cys(β,β-pentamethylene) = O=C([C@@H](N[*:1])C1(S[*:3])CCCCC1)[*:2]; Y‑OMe = O-methyl-tyrosine, COc1ccc(C[C@H](N[*:1])C(=O)[*:2])cc1; Cyclohexylacetyl(1-SH) = O=C(CC1(S)CCCCC1)*; Phe(4-I) = N[C@@H](Cc1ccc(I)cc1)C(=O)O; hPhe = N[C@@H](CCc1ccccc1)C(=O)O; dPen = CC(C)(S)[C@@H](N)C(=O)O; Pen = CC(C)(S)[C@H](N)C(=O)O; code O = not defined here; Tmc = not defined here

Assays:
Assay in all cases: ELISA
αvβ5 [1] = molecular target: αvβ5
αvβ5 [2] = molecular target: αvβ5; remark: listed apart in the source
Fibronectin receptor [3] = molecular target: T1, Fibronectin receptor (human, UniProt P08648 42-1049; P05556 21-798)
T1 sequence (P08648 42-1049, chain 1 of 2): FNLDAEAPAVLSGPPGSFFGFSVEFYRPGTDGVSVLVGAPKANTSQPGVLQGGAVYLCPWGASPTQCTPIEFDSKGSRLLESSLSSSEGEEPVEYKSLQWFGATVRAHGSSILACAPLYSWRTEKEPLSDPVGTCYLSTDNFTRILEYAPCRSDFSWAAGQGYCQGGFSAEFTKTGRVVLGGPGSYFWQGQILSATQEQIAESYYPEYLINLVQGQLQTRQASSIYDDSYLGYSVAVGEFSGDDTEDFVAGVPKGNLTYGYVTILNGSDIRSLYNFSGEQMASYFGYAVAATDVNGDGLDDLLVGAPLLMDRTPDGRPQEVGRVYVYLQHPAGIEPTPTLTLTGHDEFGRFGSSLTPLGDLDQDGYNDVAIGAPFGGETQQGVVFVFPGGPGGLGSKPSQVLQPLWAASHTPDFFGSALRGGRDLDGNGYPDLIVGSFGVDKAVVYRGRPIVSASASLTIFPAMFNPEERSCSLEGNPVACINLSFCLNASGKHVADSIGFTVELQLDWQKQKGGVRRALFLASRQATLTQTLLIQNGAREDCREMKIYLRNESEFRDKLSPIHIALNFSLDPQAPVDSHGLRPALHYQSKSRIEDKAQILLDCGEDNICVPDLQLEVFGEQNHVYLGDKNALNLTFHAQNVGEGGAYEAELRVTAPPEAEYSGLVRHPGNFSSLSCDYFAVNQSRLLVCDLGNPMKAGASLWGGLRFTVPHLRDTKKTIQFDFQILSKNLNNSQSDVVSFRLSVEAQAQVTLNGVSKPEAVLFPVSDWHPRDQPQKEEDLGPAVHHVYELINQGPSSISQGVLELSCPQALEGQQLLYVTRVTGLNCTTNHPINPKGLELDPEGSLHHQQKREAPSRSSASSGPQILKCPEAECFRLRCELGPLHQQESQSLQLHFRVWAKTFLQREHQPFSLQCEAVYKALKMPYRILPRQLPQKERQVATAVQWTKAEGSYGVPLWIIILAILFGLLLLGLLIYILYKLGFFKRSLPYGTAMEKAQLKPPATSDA
T1 sequence (P05556 21-798, chain 2 of 2): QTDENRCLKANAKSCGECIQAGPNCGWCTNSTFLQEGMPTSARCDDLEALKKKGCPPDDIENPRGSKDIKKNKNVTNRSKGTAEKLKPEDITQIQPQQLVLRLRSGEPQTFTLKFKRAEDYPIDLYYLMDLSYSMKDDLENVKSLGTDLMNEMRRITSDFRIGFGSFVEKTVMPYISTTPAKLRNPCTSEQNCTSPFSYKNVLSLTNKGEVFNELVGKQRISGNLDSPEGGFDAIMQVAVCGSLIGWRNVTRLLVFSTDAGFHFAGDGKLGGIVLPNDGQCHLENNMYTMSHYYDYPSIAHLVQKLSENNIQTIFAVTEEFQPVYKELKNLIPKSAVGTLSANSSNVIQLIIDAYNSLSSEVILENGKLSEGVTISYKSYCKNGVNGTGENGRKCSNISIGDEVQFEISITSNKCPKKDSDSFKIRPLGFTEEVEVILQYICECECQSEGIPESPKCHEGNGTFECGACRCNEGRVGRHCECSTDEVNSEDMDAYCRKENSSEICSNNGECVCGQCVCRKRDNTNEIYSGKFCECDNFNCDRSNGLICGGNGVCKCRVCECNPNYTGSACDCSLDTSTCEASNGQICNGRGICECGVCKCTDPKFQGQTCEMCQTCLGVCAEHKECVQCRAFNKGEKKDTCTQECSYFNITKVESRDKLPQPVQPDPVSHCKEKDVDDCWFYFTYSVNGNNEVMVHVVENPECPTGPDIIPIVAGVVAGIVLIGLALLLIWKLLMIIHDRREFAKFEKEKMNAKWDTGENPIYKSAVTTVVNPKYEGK

[4] = molecular target: T2, Platelet glycoprotein IIb/IIIa (human, UniProt P08514 32-1039; P05106 27-788)
Fibronectin receptor [5] = molecular target: T1, Fibronectin receptor; remark: listed apart in the source
Fibronectin receptor [6] = molecular target: T1, Fibronectin receptor; remark: listed apart in the source
[7] = molecular target: T2, Platelet glycoprotein IIb/IIIa; remark: listed apart in the source
αvβ5 [8] = molecular target: αvβ5; remark: listed apart in the source
[9] = molecular target: T2, Platelet glycoprotein IIb/IIIa; remark: listed apart in the source
αvβ5 [10] = molecular target: αvβ5; remark: listed apart in the source
αvβ5 [11] = molecular target: αvβ5; remark: listed apart in the source

R[Cys(β,β-pentamethylene)]GHRGDLRCR (disulfide 2-10 (inferred); also: D,L-Pmc mixture at 2) [R(Pmc)GHRGDLRCR] gave an IC50 (αvβ5 [1]) of 1580 nM and an IC50 (αvβ5 [2]) of 1580 nM.

With R[Cys(β,β-pentamethylene)]GHRGD[Phe(4-I)]RCR (disulfide 2-10; also: Pmc2 from Boc-D/L-Pmc) [R(Pmc)GHRGD(p-I-F)RCR] the IC50 (Fibronectin receptor [3]) was 4190 nM, the IC50 [4] was 10 nM and the IC50 (αvβ5 [2]) was 4030 nM.

Binder R[Cys(β,β-pentamethylene)]GHRGD[Tyr(Me)]RCR (disulfide 2-10; also: Pmc2 made from D,L-Pmc, configuration not given here) [R(Pmc)GHRGD(O-Me-Tyr)RCR] has an IC50 (Fibronectin receptor [3]) of 980 nM, an IC50 (Fibronectin receptor [5]) of 980 nM and an IC50 (Fibronectin receptor [6]) of 980 nM.

B1: R(Tmc)GHRGDLRCR (peptide)
peptide: R[Tmc]GHRGDLRCR
modifications: disulfide (positions not given here); reading uncertain; also: Tmc2 as D,L mixture of diastereomers, printed as R(Tmc)GHRGDLRCR
With B1 the IC50 [7] was 30 nM.

For Ac-CNPRGD[Tyr(OMe)″]EC-NH2 (disulfide 1-9) [Ac-CNPRGD(Y-OMe)EC-NH2], the IC50 (αvβ5 [8]) was 9470 nM.

With R[Pen]GHRGDLRCR (disulfide 2-10) [R(Pen)GHRGDLRCR] the IC50 (αvβ5 [1]) was 4930 nM and the IC50 [7] was 40 nM.

For G[dPen]GHRGDLRCA (disulfide 2-10) [G(D-Pen)GHRGDLRCA], the IC50 (αvβ5 [1]) was 5270 nM.

R[Cys(β,β-pentamethylene)]GHRGD[hPhe]RCR (disulfide 2-10; also: Pmc2 from Boc-D/L-Pmc, configuration not given here) [R(Pmc)GHRGD(Hpa)RCR] was tested, and the IC50 (αvβ5 [2]) was 4250 nM.

Ac-CNPRGD[Y‑OMe][code O]C-NH2 (disulfide 1-9 (inferred); reading uncertain) [Ac-CNPRGD(Y-OMe)OC-NH2] was tested, and the IC50 [9] was 50 nM and the IC50 (αvβ5 [8]) was 7700 nM.

In the case of R[Cys(β,β-pentamethylene)]GHRGD[Tyr(nBu)]RCR (disulfide 2-10; also: Pmc from Boc-D/L-Pmc, isomer not given here) [R(Pmc)GHRGD(O-n-butyl-Tyr)RCR], the IC50 [4] is reported as 30 nM.

In the case of G[Pen]GHRGDLRCA (disulfide 2-10) [G(Pen)GHRGDLRCA], the IC50 (αvβ5 [1]) is reported as 8260 nM.

For R[Cys(β,β-pentamethylene)]GHRGD[Tyr(Me)]RCR (disulfide 2-10; also: Pmc2 made from D,L-Pmc, configuration not given here) [R(Pmc)GHRGD(Y-OMe)RCR], the IC50 (αvβ5 [2]) was 1050 nM, the IC50 (αvβ5 [10]) was 1050 nM and the IC50 (αvβ5 [11]) was 1050 nM.

For [Cyclohexylacetyl(1-SH)]GHRGDLRCA (disulfide 1-9 (inferred)) [(Pmp)GHRGDLRCA], the IC50 [7] was 20 nM.

In the case of R[Cys(β,β-pentamethylene)]GHRGDFRCR (disulfide 2-10) [R(Pmc)GHRGDFRCR], the IC50 [4] is reported as 40 nM.

Binder R[dPen]GHRGDLRCR (disulfide 2-10) [R(D-Pen)GHRGDLRCR] has an IC50 (αvβ5 [1]) of 10000 nM.

Ac-CNPRGD[Tyr(OMe)″]KC-NH2 (disulfide 1-9) [Ac-CNPRGD(Y-OMe)KC-NH2] gave an IC50 (αvβ5 [8]) of 5820 nM.

With CNPRGDXXC (N-terminal acetyl; O-Me-Tyr at 7; Cit at 8; C-terminal amide) [Ac-CNPRGD(Y-OMe)(Cit)C-NH2] the IC50 (αvβ5 [8]) was 3460 nM.
